A short description of data set [1]: RP-HPLC retention time (read by the paper as polarity). It counts as physicochemical. Particulars: water/acetonitrile gradient with 0.1% formic acid, MS TIC detection. The protocol:
An Agilent binary HPLC composing of an Agilent 1100 LC pump, an Agilent 1100 well plate auto-sampler (Agilent Technologies, Santa Clara, CA, USA) and a Jupiter 5 μ (C4, 300 A, 150×2.00 mm, 5 μ) RP HPLC column (Phenomenex, Torrance, CA, USA) were used for separation. The mobile phase flow rate was 200 µl/min and the volume of injection was 20 µL. The separations were performed using a binary solvent gradient; water (Milli-Q; Millipore Corporation, Bedford, MA) which contained 0.1% v/v formic acid was used as the solvent A and acetonitrile (Merck KGaA, Darmstadt, Germany) which contained 0.1% v/v formic acid (Nuplex industries Pty Ltd. (NSW, Australia) was used as the solvent B. The chromatographic separation was achieved using the gradient shown in Table 1.
An API 3000 tandem mass spectrometer equipped with a turbo ion spray was used as the detector. Detection was performed in total ion current (TIC) mode (MS1/Q1), in positive mode, within the range 200–3000 amu. The data were acquired and processed by Analyst 1.5 software (Applied Biosystems, Foster city, CA, USA). Mass spectra were obtained using: declustering potential (DF) of 16 V, focusing potential (FP) of 120 V, Entrance potential (EP) of 10 V, and Ion spray voltage (IS) of 5000 V. Structure identity of fragments was performed using the respective mass/charge (m/z) values of each peptide metabolite. Direct flow injections were carried out using Model 11 plus Harvard Syringe pump (Harvard Apparatus Inc, Holliston, MA, USA).

The nature of data set [2]: Biotransformation in homogenised inflamed tissue at pH 5.5 (LC/MS, mean residence time). Particulars: MES pH 5.5, 37°C, 120 min, AUMC/AUC of LC/MS peak intensity.
Where [3] appears, read: incubation of BE 1-17, Jupiter C4 column.
Where [4] appears, read: incubation of BE 1-17 (115 µM) in rat inflamed tissue homogenate.
Setting [5] is: incubation of BE 1-31, Jupiter C4 300 A column, 200 µl/min.
The mark [6] stands for this setting: incubation of BE 1-31 (115 µM) in rat inflamed tissue homogenate.
Where [7] appears, read: incubation of BE 1-11, Jupiter C4 column.
Where [8] appears, read: incubation of BE 1-13, Jupiter C4 column.
Setting [9] is: incubation of BE 1-11 (115 µM) in rat inflamed tissue homogenate.
Setting [10] is: incubation of BE 1-13 (115 µM) in rat inflamed tissue homogenate.

“BE 1-14: beta-endorphin N-terminal fragment, residues 1-14 (YGGFMTSEKSQTPL; Beta-endorphin; UniProt P01189 237-250, looked up, fragment)” registered an RT in data set [1] (setting [3]) of 21.13 min. For the same substance, in data set [2] (setting [4]), the MRT turned out to be 13.8.
“BE 1-15: beta-endorphin N-terminal fragment, residues 1-15 (YGGFMTSEKSQTPLV; Beta-endorphin; UniProt P01189 237-251, looked up, fragment)”: the results for the RT in data set [1] (setting [3]) and in data set [1] (setting [5]) were 22.33 min and 24.2 min, respectively. The MRT came to 8.3 in data set [2] (setting [4]) and 12 in data set [2] (setting [6]).
On to “BE 1-16: beta-endorphin N-terminal fragment, residues 1-16 (YGGFMTSEKSQTPLVT; Beta-endorphin; UniProt P01189 237-252, looked up, fragment)”, for which the RT in data set [1] (setting [3]) was 21.38 min; in data set [1] (setting [5]) it was 23.2 min. Also, the MRT is recorded as 7.6 in data set [2] (setting [4]) and 9.8 in data set [2] (setting [6]).
For “BE 2-9: des-tyrosine beta-endorphin fragment, residues 2-9 (GGFMTSEK; Beta-endorphin; UniProt P01189 238-245, looked up, fragment)”, the Rt in data set [1] (setting [7]) and in data set [1] (setting [8]) was 15.8 min each time. The results for the RT in data set [1] (setting [3]) and in data set [1] (setting [5]) were 15.87 min and 18.38 min, respectively. Also, the MRT in data set [2] (setting [9]) stood at 17; in data set [2] (setting [10]), 19.8; in data set [2] (setting [4]), 21; in data set [2] (setting [6]) it was 20.
In the case of “BE 2-11: des-tyrosine beta-endorphin fragment, residues 2-11 (GGFMTSEKSQ; Beta-endorphin; UniProt P01189 238-247, looked up, fragment)”, the Rt in data set [1] (setting [7]) and in data set [1] (setting [8]) was 15.7 min in each case. Besides, the RT in data set [1] (setting [3]) is reported as 15.52 min; in data set [1] (setting [5]), 17.5 min. Also, the MRT in data set [2] (setting [9]) came out at 15; in data set [2] (setting [10]), 20.2; in data set [2] (setting [4]), 31.8; in data set [2] (setting [6]) it was 37.
In turn, “BE 2-12: beta-endorphin fragment, residues 2-12 (GGFMTSEKSQT; Beta-endorphin; UniProt P01189 238-248, looked up, fragment)” had a Rt in data set [1] (setting [8]) of 16.2 min. For the same substance, in data set [2] (setting [10]), the MRT amounted to 18.1.
For “BE 2-13: des-tyrosine beta-endorphin fragment, residues 2-13 (GGFMTSEKSQTP; Beta-endorphin; UniProt P01189 238-249, looked up, fragment)”, the Rt in data set [1] (setting [8]) was 17.2 min. The figures for the RT in data set [1] (setting [3]) and in data set [1] (setting [5]) were 17.08 min and 19.96 min, respectively. Also, the results for the MRT in data set [2] (setting [10]), in data set [2] (setting [4]) and in data set [2] (setting [6]) were 16.4, 25.5 and 65, respectively.
As to “BE 2-14: beta-endorphin fragment, residues 2-14 (GGFMTSEKSQTPL; Beta-endorphin; UniProt P01189 238-250, looked up, fragment)”, the RT in data set [1] (setting [3]) is 20.1 min; in data set [1] (setting [5]), 22.2 min. In addition, the values for the MRT in data set [2] (setting [4]) and in data set [2] (setting [6]) were 18.9 and 25.1, respectively.
As to “BE 2-15: beta-endorphin fragment, residues 2-15 (GGFMTSEKSQTPLV; Beta-endorphin; UniProt P01189 238-251, looked up, fragment)”, the RT in data set [1] (setting [3]) is on record as 21.33 min.
With “BE 2-16: des-tyrosine beta-endorphin fragment, residues 2-16 (GGFMTSEKSQTPLVT; Beta-endorphin; UniProt P01189 238-252, looked up, fragment)”, the RT in data set [1] (setting [3]) was 20.43 min. Besides, in data set [2] (setting [4]), the MRT is 15.1.
“BE 2-17: des-tyrosine beta-endorphin fragment, residues 2-17 (GGFMTSEKSQTPLVTL; Beta-endorphin; UniProt P01189 238-253, looked up, fragment)”: in data set [1] (setting [3]), the RT is reported as 24 min. The substance also returned an MRT in data set [2] (setting [4]) of 7.45.
With “BE 3-11: beta-endorphin fragment, residues 3-11 (GFMTSEKSQ; Beta-endorphin; UniProt P01189 239-247, looked up, fragment)”, the Rt in data set [1] (setting [7]) came to 15.4 min. This substance gave an RT in data set [1] (setting [3]) of 21.48 min. The same substance had an MRT in data set [2] (setting [9]) of 14.
Substance “BE 3-12: beta-endorphin fragment, residues 3-12 (GFMTSEKSQT; Beta-endorphin; UniProt P01189 239-248, looked up, fragment)” displayed an RT in data set [1] (setting [3]) of 20.53 min.
In data set [1] (setting [8]), “BE 3-13: beta-endorphin fragment, residues 3-13 (GFMTSEKSQTP; Beta-endorphin; UniProt P01189 239-249, looked up, fragment)” gave a Rt of 17.2 min. In data set [2] (setting [10]), the MRT is listed as 16.1.
In data set [1] (setting [3]), “BE 3-14: beta-endorphin fragment, residues 3-14 (GFMTSEKSQTPL; Beta-endorphin; UniProt P01189 239-250, looked up, fragment)” displayed an RT of 20.1 min.
On to “BE 3-16: beta-endorphin fragment, residues 3-16 (GFMTSEKSQTPLVT; Beta-endorphin; UniProt P01189 239-252, looked up, fragment)”, for which the RT in data set [1] (setting [3]) stood at 20.43 min. In data set [2] (setting [4]), this substance came in with an MRT of 11.
As to “BE 3-17: beta-endorphin fragment, residues 3-17 (GFMTSEKSQTPLVTL; Beta-endorphin; UniProt P01189 239-253, looked up, fragment)”, the RT in data set [1] (setting [3]) is 24 min. For the same substance, the MRT in data set [2] (setting [4]) is reported as 6.2.
In turn, “BE 4-14: beta-endorphin fragment, residues 4-14 (FMTSEKSQTPL; Beta-endorphin; UniProt P01189 240-250, looked up, fragment)” came in with an RT in data set [1] (setting [3]) of 18.68 min.
For “BE 4-15: beta-endorphin fragment, residues 4-15 (FMTSEKSQTPLV; Beta-endorphin; UniProt P01189 240-251, looked up, fragment)”, in data set [1] (setting [3]), the RT worked out at 20.13 min.
On the same count and under the same terms, with “BE 4-16: beta-endorphin fragment, residues 4-16 (FMTSEKSQTPLVT; Beta-endorphin; UniProt P01189 240-252, looked up, fragment)” the figure was 19.32 min; with “BE 6-14: beta-endorphin fragment, residues 6-14 (TSEKSQTPL; Beta-endorphin; UniProt P01189 242-250, looked up, fragment)”, 14.62 min; with “BE 7-14: beta-endorphin fragment, residues 7-14 (SEKSQTPL; Beta-endorphin; UniProt P01189 243-250, looked up, fragment)”, 14.92 min.
Consider “BE 7-16: beta-endorphin fragment, residues 7-16 (SEKSQTPLVT; Beta-endorphin; UniProt P01189 243-252, looked up, fragment)”, for which the RT in data set [1] (setting [3]) worked out at 16 min.
“BE 8-14: beta-endorphin fragment, residues 8-14 (EKSQTPL; Beta-endorphin; UniProt P01189 244-250, looked up, fragment)” gave an RT in data set [1] (setting [3]) of 16.27 min.
“BE 29-31: beta-endorphin fragment, residues 29-31 (KGE; Beta-endorphin; UniProt P01189 265-267, looked up, fragment)” registered an RT in data set [1] (setting [5]) of 5.4 min.

For the origin of these results see PMC3949714 (PLoS ONE, 2014).
